Data on one substance can be found in paper PMC6982183.

The target of this assay is human Hsp60 wild type (human). Nature of the assay: SEC; Superdex 200 Increase 10/300 GL, 50 mM Tris-HCl (pH 7.8 at 25 °C), 2 mM DTT, 2 mM EDTA, 0.5 mg sample, 0.75 mL/min; size from calibration with molecular weight standards; before and after agitation.

As for human Hsp60 wild type (natural protein), the stoichiometry N stood at 14.

A word on the stoichiometry N: it is the number of molecules, sites or subunits per partner or assembly.
